Laboratory results published in US7737250B2, “Peptides for treating axonal damage, inhibition of neurotransmitter release and pain transmission, and blocking calcium influx in neurons” (Mount Sinai School of Medicine of New York University, priority 2003, dated 2010).

Molecular target: T1, L1-CAM-ankyrin interactions (Homo sapiens, UniProt Q01484)
T1 construct: expressed in transfected cells; host or cells: human kidney 293 cells
Assay: Ankyrin recruitment assay: ankyrinB co-localization with L1-CAM at the membrane of transfected 293 cells
Assay type: cell-based
Settings: 1.4 μg/ml peptide for 30 minutes
Experimental: Cell culture aid transfection: Human kidney 293 cells were cultured in DMEM medium (Gibco) supplemented with penicillin, streptomycin, L-glutamine, and 10% fetal bovine serum (Hyclone). The pMyc-L1-CAM or pL1-CAM-GFP expression constructs were transfected into cultured human kidney 293 cells using Lipofectamine plus (Invitrogen) according to manufacturer instructions. Cells were cultured for 24-48 hours and then used, or cultured continuously in the presence of 0.5 μg.mL G418 (Gibco) to select for stably transfected cells lines, to generate stable pooled lines of L1-CAM-expressing cells.
In some instances, transfected 293 cells were treated with neural growth factor (NGF) or epidermal growth factor (EGF) to stimulate phosphorylation of tyrosine 1229 (Y1229) of the L1-CAM cytoplasmic domain, and thereby inhibit ankyrin binding. In these cases, cells were treated with 50 ng/mL EGF (Gibco) or 100 ng/mL NGF (Gibco) for 1 hour prior to the assay. […]
Ankyrin and L1-CAM were detected by indirect immunofluorescence in double-labeled confocal sections through cell aggregates to permit the visualization of L1 and ankyrinB at the cell membrane. Expression of myc-L1-CAM was detected using a polyclonal anti-L1-CAM rabbit antibody. […] Ankyrin was detected using a monoclonal anti-ankyrinB mouse antibody (BD PharMingen). […]
Quantification of ankyrin immunolocalization: Confocal micrographs were then used to quantify the degree of ankyrin localization to the cell membrane of myc-L1-CAM expressing cells. Images were analyzed using ImageJ (NIH) under Macintosh OSX. The method for quantifying ankyrinB localization to the membrane uses densitometry of a line scan perpendicular to and crossing a cell-cell junction. […]
The densitometry intensity profile of the scanned line was used to determine a minimum ankyrinB signal for comparison to the value of the ankyrinB signal at the point where the maximum signal in the L1-CAM channel occurs. […] Minima were determined from the regions of the line overlapping the cytoplasm of either of the two cells. […]

T1 sequence (Q01484 whole entry): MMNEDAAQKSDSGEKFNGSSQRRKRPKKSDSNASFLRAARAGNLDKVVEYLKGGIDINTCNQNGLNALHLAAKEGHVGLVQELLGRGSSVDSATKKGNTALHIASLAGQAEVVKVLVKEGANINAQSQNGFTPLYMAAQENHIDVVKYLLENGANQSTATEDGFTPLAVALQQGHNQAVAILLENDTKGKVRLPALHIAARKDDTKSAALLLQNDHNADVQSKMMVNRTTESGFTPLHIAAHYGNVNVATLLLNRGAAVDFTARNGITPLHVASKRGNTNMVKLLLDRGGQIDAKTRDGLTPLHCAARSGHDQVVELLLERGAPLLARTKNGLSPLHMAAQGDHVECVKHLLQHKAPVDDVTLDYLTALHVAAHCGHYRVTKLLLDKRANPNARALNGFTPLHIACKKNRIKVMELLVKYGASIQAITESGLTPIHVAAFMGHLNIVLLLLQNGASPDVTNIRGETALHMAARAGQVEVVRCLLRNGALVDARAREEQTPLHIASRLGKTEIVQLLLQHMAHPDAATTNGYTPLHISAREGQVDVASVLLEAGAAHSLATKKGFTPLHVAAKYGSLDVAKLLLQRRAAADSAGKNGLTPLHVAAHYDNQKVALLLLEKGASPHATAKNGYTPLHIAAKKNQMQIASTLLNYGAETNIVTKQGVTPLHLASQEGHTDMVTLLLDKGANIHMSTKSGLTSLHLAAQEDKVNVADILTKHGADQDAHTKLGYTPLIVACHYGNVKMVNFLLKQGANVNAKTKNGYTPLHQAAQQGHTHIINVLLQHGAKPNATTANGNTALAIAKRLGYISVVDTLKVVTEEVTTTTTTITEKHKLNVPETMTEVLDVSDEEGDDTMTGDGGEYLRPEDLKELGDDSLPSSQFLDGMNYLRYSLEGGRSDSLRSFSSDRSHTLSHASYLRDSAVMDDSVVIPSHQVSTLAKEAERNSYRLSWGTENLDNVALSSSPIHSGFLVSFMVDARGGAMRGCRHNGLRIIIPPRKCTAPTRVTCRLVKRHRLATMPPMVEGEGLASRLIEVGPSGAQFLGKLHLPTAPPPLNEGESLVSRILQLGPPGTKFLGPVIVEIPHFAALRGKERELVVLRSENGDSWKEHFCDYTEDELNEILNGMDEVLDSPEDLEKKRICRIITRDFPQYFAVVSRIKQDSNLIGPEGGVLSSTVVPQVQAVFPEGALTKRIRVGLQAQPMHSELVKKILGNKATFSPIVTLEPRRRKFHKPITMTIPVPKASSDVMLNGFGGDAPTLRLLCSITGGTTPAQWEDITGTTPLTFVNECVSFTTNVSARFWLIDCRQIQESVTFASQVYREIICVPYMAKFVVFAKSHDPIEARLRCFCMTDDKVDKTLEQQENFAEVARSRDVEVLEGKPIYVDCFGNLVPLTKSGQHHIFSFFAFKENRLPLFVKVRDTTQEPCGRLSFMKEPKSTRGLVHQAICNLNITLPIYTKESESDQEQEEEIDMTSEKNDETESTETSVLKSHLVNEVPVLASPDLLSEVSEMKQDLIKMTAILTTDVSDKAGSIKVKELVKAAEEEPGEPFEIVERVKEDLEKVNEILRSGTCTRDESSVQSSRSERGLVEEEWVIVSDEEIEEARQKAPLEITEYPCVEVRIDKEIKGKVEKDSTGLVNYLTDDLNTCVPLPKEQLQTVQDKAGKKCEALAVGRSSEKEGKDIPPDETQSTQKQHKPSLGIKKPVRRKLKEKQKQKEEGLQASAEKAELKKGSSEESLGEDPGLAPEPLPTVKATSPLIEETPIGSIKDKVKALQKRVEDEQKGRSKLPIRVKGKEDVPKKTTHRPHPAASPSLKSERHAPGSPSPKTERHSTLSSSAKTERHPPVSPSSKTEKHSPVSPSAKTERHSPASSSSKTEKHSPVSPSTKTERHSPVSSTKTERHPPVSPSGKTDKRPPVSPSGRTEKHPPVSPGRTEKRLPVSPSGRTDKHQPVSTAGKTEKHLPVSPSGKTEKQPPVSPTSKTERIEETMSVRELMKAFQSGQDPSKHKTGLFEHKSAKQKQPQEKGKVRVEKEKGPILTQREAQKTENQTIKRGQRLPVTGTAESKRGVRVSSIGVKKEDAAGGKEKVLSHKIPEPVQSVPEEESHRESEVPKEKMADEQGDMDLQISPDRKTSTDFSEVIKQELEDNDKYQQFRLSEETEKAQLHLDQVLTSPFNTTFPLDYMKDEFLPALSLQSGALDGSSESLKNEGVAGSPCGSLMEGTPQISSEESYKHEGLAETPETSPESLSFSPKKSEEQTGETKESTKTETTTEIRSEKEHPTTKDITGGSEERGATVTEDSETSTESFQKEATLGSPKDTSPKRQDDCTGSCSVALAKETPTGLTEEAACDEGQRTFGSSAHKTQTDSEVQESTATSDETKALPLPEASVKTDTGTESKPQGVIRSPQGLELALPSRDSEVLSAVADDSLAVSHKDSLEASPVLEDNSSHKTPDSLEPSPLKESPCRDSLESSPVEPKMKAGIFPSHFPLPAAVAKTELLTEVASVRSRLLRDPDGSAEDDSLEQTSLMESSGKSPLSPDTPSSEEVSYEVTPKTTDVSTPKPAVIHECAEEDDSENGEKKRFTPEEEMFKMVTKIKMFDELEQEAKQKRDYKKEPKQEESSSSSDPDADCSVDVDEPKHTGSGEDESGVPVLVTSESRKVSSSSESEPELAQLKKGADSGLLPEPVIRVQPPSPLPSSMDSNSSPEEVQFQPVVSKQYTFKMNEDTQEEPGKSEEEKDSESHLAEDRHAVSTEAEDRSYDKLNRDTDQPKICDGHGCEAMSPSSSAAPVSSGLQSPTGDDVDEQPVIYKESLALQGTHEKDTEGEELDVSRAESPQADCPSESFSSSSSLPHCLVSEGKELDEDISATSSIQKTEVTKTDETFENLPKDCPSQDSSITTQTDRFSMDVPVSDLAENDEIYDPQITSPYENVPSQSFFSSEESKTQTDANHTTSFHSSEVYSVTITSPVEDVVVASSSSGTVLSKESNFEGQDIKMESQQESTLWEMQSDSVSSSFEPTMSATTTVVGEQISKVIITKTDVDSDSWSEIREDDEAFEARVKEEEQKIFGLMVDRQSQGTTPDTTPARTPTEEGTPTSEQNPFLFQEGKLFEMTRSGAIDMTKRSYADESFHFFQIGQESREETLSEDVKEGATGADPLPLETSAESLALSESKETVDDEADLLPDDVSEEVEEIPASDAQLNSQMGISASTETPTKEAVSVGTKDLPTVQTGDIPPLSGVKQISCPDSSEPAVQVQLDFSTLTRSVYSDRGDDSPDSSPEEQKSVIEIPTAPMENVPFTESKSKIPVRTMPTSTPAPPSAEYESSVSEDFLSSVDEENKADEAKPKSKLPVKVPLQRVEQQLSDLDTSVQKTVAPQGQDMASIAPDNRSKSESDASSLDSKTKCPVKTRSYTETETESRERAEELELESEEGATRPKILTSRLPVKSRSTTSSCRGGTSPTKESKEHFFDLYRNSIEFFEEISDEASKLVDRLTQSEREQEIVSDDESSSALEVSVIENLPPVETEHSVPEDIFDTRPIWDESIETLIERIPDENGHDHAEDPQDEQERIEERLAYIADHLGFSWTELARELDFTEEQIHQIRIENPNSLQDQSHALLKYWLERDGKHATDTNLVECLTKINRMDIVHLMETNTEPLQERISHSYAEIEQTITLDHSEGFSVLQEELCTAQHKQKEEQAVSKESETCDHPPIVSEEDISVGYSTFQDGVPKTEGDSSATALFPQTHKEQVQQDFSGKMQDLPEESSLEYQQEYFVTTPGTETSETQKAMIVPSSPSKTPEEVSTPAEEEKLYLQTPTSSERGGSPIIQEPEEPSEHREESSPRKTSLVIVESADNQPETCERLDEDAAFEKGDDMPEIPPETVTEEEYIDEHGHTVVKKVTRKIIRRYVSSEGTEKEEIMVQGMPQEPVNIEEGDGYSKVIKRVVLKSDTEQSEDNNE

RQIKIWFQNRRMKWKKFQGIFSGDENFQ [AP-Scramble]
ankyrin co-localization with L1-CAM at the cell membrane (L1-CAM-ankyrin interactions): no detectible effects

RQIKIWFQNRRMKWKKQFNEDGSFIGQF [AP-YF]
ankyrin co-localization with L1-CAM at the cell membrane (L1-CAM-ankyrin interactions): inhibited L1-CAM-ankyrin interactions
